These results are taken from patent US20060094013.

Data set [1] concerns the target T1, peptide p300 [84-93 (S89A)], Q09472.
T1 chain: LLRSGASPNL

Data set [2] deals with GST-Syntide 2 [GST: P08515].
Data set [3] concerns the target SIK1 substrate mutant (R574A) wherein arginine at position 574 is substituted with alanine.
The target in data set [4] is wild-type SIK1 peptide not phosphorylated by PKA (on GST as carrier protein) [GST: P08515].
The target in data set [5] is SIK1 peptide wherein serine at position 577 is substituted with alanine (on GST as carrier protein) [GST: P08515].
For data set [6], the target named is SIK1 substrate mutant (R574/575A) wherein arginines at positions 574 and 575 are substituted with alanines.
Data set [7] concerns the target SIK1 substrate mutant (R575A) wherein arginine at position 575 is substituted with alanine.

Chain of GST-Syntide 2 [GST: P08515] (P08515 whole entry, looked up): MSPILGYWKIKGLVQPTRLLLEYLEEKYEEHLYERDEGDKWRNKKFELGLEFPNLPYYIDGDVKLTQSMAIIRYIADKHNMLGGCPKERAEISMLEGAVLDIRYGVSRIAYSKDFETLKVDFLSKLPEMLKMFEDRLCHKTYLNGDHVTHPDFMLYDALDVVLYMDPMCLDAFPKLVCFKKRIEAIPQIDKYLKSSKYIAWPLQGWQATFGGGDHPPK
Chain of SIK1 peptide wherein serine at position 577 is substituted with alanine (on GST as carrier protein) [GST: P08515] (P08515 whole entry, looked up): as above
Chain of wild-type SIK1 peptide not phosphorylated by PKA (on GST as carrier protein) [GST: P08515] (P08515 whole entry, looked up): as above

B1: GST-mSIK2 (protein)
chain: MVMADGPRHLQRGPVRVGFYDIEGTLGKGNFAVVKLGRHRTTKTEVAIKIIDKSQLDAVNLEKIYREVQIMKMLDHPHIIKLYQVMETKSMLYLVTEYAKNGEIFDYLANHGRLNESEARRKFWQILSAVDYCHGRKVVHRDLKAENLLLDNNMNIKIADFGFGNFFKTGELLATWCGSPPYAAPEVFEGQQYEGPQLDIWSMGVVLYVLVCGALPFDGPTLPILRQRVLEGRFRIPYFMSEDCEHLIRRMLVLDPSKRLSIAQIKEHKWMLIEVPVQRPILYPQEQENEPSIGEFNEQVLRLMHSLGIDQQKTVESLQNKSYNHFAAIYFLLVERLKSHRSSFPVEQRLDGRQRRPSTIAEQTVAKAQTVGLPVTLHPPNVRLMRSTLLPQASNVEAFSFPTSSCQAEAAFMEEECVDTPKVNGCLLDPVPPVLVRKGCQSLPSSMMETSIDEGLETEGEAEEDPSQAFEAFQATRSGQRRHTLSEVTNQLVVMPGAGKMFSMSDNPSLESVDSEYDMGSAQRDLNFLEDSPSLKDIMLANQPSPRMTSPFISLRPANPAMQALSSQKREAHNRSPVSFREGRRASDTSLTQGIVAFRQHLQNLARTKGILELNKVQLLYEQMGSNADPTLTSTAPQLQDLSSSCPQEEISQQQESVSSLSASMHPQLSPQQSLETQYLQHRLQKPNLLPKAQSPCPVYCKEPPRSLEQQLQEHRLQQKRLFLQKQSQLQAYFNQMQIAESSYPGPSQQLALPHQETPLTSQQPPSFSLTQALSPVLEPSSEQMQFSSFLSQYPEMQLQPLPSTPGPRAPPPLPSQLQQHQQPPPPPPPPPPQQPGAAPTSLQFSYQTCELPSTTSSVPNYPASCHYPVDGAQQSNLTGADCPRSSGLQDTASSYDPLALSELPGLFDCEMVEAVDPQHNGVVSCLARET
For B1, in data set [1], the “enzyme activity of SIK (phosphorylation of Syntide 2)” value is given as “the unphosphorylated peptide p300 wherein serine at position 89 is substituted with alanine inhibits the enzyme activity of SIK” and the “phosphorylation by SIK” value is “a peptide wherein serine at position 89 in p300 is substituted with alanine becomes unphosphorylated”. Moreover, in data set [2], the “protein-phosphorylating activity (32P intake, SDS-PAGE)” value is “wild-type GST-mSIK2 has an auto-phosphorylating activity and an activity of phosphorylating GST-Syntide 2”.

B2: GST-rat SIK1 (protein)
chain: MVIMSEFSAVPTGTGQGQQKPLRVGFYDVERTLGKGNFAVVKLARHRVTKTQVAIKIIDKTRLDSSNLEKIYREVQLMKLLNHPNIIKLYQVMETKDMLYIVTEFAKNGEMFDYLTSNGHLSENEARKKFWQILSAVEYCHNHHIVHRDLKTENLLLDGNMDIKLADFGFGNFYKPGEPLSTWCGSPPYAAPEVFEGKEYEGPQLDIWSLGVVLYVLVCGSLPFDGPNLPTLRQRVLEGRFRIPFFMSQDCETLIRRMLVVDPAKRITIAQIRQHRWMQADPTLLQQDDPAFSMQGYTSNLGDYNEQVLGIMQALGIDRQRTVESLQNSSYNHFAAIYYLLLERLREHRSTQPSSRATPAPARQPQLRNSDLSSLEVPQEILPCDPFRPSLLCPQPQALAQSVLQAEIDCDLHSSLQPLFFPLDTNCSGVFRHRSISPSSLLDTAISEEARQGPSLEEEQEVQEPLPGSTGRRHTLAEVSTHFSPLNPPCIIVSSSAAVSPSEGTSSDSCLPFSASEGPAGLGGGLATPGLLGTSSPVRLASPFLGSQSATPVLQSQAGLGATVLPPVSFQEGRRASDTSLTQGLKAFRQQLRKNARTKGFLGLNKIKGLARQVCQSSIRGSRGGMSTFHTPAPSSGLQGCTASSREGRSLLEEVLHQQRLLQLQHHSAVSSDYQQAPQLSPVPYVLTPCDGLLVSGIPLLPTPLLQPGMSPVASAAQLLDAHLHISAGPVALPTGPLPQCLTRLSPSCDPAGLPQGDCEMEDLTSGQRGTFVLVQ
On to B2, for which the “phosphorylation of the substrate (32P)” value in data set [3] is “the mutants S577A, R574A, and R574/575A were not phosphorylated”; in data set [4], “the wild-type SIK1 was phosphorylated”; in data set [5], “the mutants S577A, R574A, and R574/575A were not phosphorylated”; in data set [6] it was “the mutants S577A, R574A, and R574/575A were not phosphorylated”; in data set [7] it was “the mutant R575A was phosphorylated much more efficiently than the case of the wild-type SIK1”. For the same protein, in data set [2], the “protein-phosphorylating activity (32P intake, SDS-PAGE)” value was “GST-rat SIK1 and GST-rat SIK1 (K56M) were subjected to the same experiment. Consequently, the same results were obtained”.
